Test results: doi:10.1101/2024.05.17.594765
Positions count from the first letter of the chain named. Names may count otherwise.

T1: C-terminally Halo-tagged full-length zyxin (zyxin-Halo), Q15942
T1 chain: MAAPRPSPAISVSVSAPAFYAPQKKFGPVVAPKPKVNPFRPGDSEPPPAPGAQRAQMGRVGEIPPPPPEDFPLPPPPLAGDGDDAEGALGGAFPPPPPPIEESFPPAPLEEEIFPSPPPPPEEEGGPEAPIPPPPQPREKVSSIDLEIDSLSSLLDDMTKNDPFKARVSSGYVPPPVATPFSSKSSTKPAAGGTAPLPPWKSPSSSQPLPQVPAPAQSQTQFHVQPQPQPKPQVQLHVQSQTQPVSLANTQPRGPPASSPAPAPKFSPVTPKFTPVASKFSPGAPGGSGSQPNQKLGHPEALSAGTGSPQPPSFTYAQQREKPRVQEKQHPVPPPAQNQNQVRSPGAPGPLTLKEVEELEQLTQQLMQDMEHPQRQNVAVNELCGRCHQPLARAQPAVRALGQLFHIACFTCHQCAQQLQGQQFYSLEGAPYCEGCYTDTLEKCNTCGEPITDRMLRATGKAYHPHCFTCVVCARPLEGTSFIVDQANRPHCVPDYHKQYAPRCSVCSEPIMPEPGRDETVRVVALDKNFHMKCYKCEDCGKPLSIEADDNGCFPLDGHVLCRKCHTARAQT

T2: zyxin mutant deficient in recruiting VASP, F(75, 97, 108, 118)A, Halo-tagged, Q15942
T2 chain: T1 chain with F71A, F93A, F104A, F114A

B1: C-terminally Halo-tagged VASP (VASP-Halo), P50552 L226A; I231A; L235A; R273E; R274E; R275E; K276E (protein)
chain: SETVICSSRATVMLYDDGNKRWLPAGTGPQAFSRVQIYHNPTANSFRVVGRKMQPDQQVVINCAIVRGVKYNQATPNFHQWRDARQVWGLNFGSKEDAAQFAAGMASALEALEGGGPPPPPALPTWSVPNGPSPEEVEQQKRQQPGPSEHIERRVSNAGGPPAPPAGGPPPPPGPPPPPGPPPPPGLPPSGVPAAAHGAGGGPPPAPPLPAAQGPGGGGAGAPGAAAAAAGAKARKVSKQEEASGGPTAPKAESGRSGGGGLMEEMNAMLAEEEEATQVGEKTPKDESANQEEPEARVPAQSESVRRPWEKNSTTLPRMKSSSSVTTSETQPCTPSSSDYSDLQRVKQELLEEVKKELQKVKEEIIEAFVQELRKRGSP
B2: m6; m1 VASP:L226A; VASP:I231A; VASP:L235A; VASP:R273E; VASP:R274E; VASP:R275E; VASP:K276E; zyxin:F75A; zyxin:F97A; zyxin:F108A; zyxin:F118A (protein)
chain: B1 chain

What was measured:
[1] = biological target: T1, C-terminally Halo-tagged full-length …; assay: force reconstitution TIRF assay; settings: chain shown with the change; images were acquired every 1 s; parent: est. 490; read off a plot
[2] = biological target: T2, zyxin mutant deficient in recruiting …; assay: force reconstitution TIRF assay; settings: chain shown with the change; images were acquired every 1 s; parent: est. 490; read off a plot

Row | Binder | other: Number of Binding Events (mean) [1] | other: Number of Binding Events (mean) [2]
1 | B1 | 180 | 
2 | B2 |  | 30
